Fold acceleration of the inhibition rate with LMWH against no heparin, k2 (second-order rate constant) and second-order association rate constant data for 1 molecule are collected here from paper PMC7356578.

In test [1] the target is KLK1-70Lm (KLK1 with D75, D76 and E77 replaced by arginines) (human). Description: kinetics of protease inhibition (discontinuous assay); 1 µM rKAL preincubated 5 min with LMWH (0-2.5 mg/mL) at room temperature, then 10 nM KLK1-70Lm; kobs plotted against LMWH.
Test [2] shares this target. The test can be described thus: kinetics of protease inhibition (discontinuous assay); pseudo-first-order; 10 nM protease with 100-500 nM kallistatin variant, PBS, 0.1% PEG 8000, 22 ± 1 °C; apparent second-order rate constant kapp from kobs; k2 = kapp × SI.
Test [3] addresses KLK1-99Lm (KLK1 with nine residues of its 99 loop deleted) (human) (UniProt P06870). The description is as above.

B1: Recombinant human kallistatin (rKAL), wild type (natural protein)
chain: GSPSLKIAPANADFAFRFYYLIASETPGKNIFFSPLSISAAYAMLSLGACSHSRSQILEGLGFNLTELSESDVHRGFQHLLHTLNLPGHGLETRVGSALFLSHNLKFLAKFLNDTMAVYEAKLFHTNFYDTVGTIQLINDHVKKETRGKIVDLVSELKKDVLMVLVNYIYFKALWEKPFISSRTTPKDFYVDENTTVRVPMMLQDQEHHWYLHDRYLPCSVLRMDYKGDATVFFILPNQGKMREIEEVLTPEMLMRWNNLLRKRNFYKKLELHLPKFSISGSYVLDQILPRLGFTDLFSKWADLSGITKQQKLEASKSFHKATLDVDEAGTEAAAATSFAIKFFSAQTNRHILRFNRPFLVVIFSTSTQSVLFLGKVVDPTKP
Regarding B1, the fold acceleration of the inhibition rate with LMWH against no heparin in test [1] came out at 5 fold. For the same molecule, in test [2], the k2 (second-order rate constant) was determined as 1800 M⁻¹ s⁻¹. For the same molecule, in test [3], the second-order association rate constant stood at 200 M⁻¹ s⁻¹.
